Results reported in the supplement of paper PMC10724198.
± gives the standard deviation of the averaged measurements.

Tested on: Saccharomyces cerevisiae
Assay: protein stability index of tFT-peptide fusion (C-terminal peptide) (PSI (0-1 scale)); higher = more stable (slower turnover)
Conditions: temperature: 30 C
Procedure: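 MPS profiling in S. cerevisiae of the yeast C-terminome library: the last 12 aa of each annotated ORF are fused to the C-terminus of a sfGFP-mCherry timer, after a GGGS linker. Cells are FACS-sorted into 8 mCherry/sfGFP bins and deep-sequenced. PSI runs from 0 (unstable) to 1 (stable); wild type and das1Δ backgrounds, two technical replicates each.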

[1] = genetic background: das1 deletion

Sequence	protein stability index [1]	protein stability index (genetic background: wild type)
EQAAKYIEYLNL [RAD10 C-terminal 12 aa]	0.817 ± 0.019	0.603 ± 0.045
EQEVIFTDLTAY [ECM32 C-terminal 12 aa]	0.742 ± 0.015	0.7 ± 0.012
EQHNVLDTKKNE [SPC2 C-terminal 12 aa]	0.687 ± 0.037	0.649 ± 0.029
ERDGYYYLKRSS [VHT1 C-terminal 12 aa]	0.715 ± 0.019	0.694 ± 0.02
EREVNPSARSLG [YLR184W C-terminal 12 aa]	0.694 ± 0.028	0.684 ± 0.013
ESKKTKGEELTL [ARG1 C-terminal 12 aa]	0.6793 ± 0.0016	0.669 ± 0.015
ESLSNEAALKAN [RPO31 C-terminal 12 aa]	0.676 ± 0.027	0.397 ± 0.017
ESPTEDSVPHAE [CSA1 C-terminal 12 aa]	0.709 ± 0.018	0.687 ± 0.032
ESSARRDRKEHI [TMA23 C-terminal 12 aa]	0.679 ± 0.035	0.701 ± 0.041
ETDSESEVESIM [SYG1 C-terminal 12 aa]	0.697 ± 0.036	0.675 ± 0.025
EVKVDKVVYEKE [VPS29 C-terminal 12 aa]	0.683 ± 0.067	0.725 ± 0.04
EVSTEDTVHDEL [EUG1 C-terminal 12 aa]	0.675 ± 0.0097	0.683 ± 0.041
EYLQSMKTSINR [SFB2 C-terminal 12 aa]	0.69 ± 0.024	0.695 ± 0.024
FARFITAIFHHI [MKC7 C-terminal 12 aa]	0.73 ± 0.019	0.153 ± 0.0061
FDALMNNDGDSD [TIF4632 C-terminal 12 aa]	0.68 ± 0.016	0.6696 ± 0.0037
FDDSSSVSSKSD [GPC1 C-terminal 12 aa]	0.717 ± 0.014	0.695 ± 0.027
FDRVRLLVDKIT [HIR3 C-terminal 12 aa]	0.683 ± 0.0076	0.234 ± 0.0042
FDSNVSVAVDER [SET5 C-terminal 12 aa]	0.699 ± 0.022	0.651 ± 0.027
FFLEECHRIGSK [HEM12 C-terminal 12 aa]	0.726 ± 0.015	0.7467 ± 0.007
FGGVRSPKMRRL [MRPS18 C-terminal 12 aa]	0.72 ± 0.017	0.681 ± 0.042
FGSNVNQQFNFN [SRP1 C-terminal 12 aa]	0.723 ± 0.0085	0.719 ± 0.032

Sequence	protein stability index [1]	protein stability index (genetic background: wild type)
FHHMLIFIILKL [PRM2 C-terminal 12 aa]	0.203 ± 0.013	0.193 ± 0.028
FIVAEYIQQKKV [SRB4 C-terminal 12 aa]	0.694 ± 0.018	0.3321 ± 0.00069
FKMCETEMQPIK [YGR201C C-terminal 12 aa]	0.7043 ± 0.0065	0.669 ± 0.013
FLDDVLNGREII [YNL058C C-terminal 12 aa]	0.708 ± 0.011	0.752 ± 0.015
FNNILTKEMQKI [CLD1 C-terminal 12 aa]	0.701 ± 0.031	0.717 ± 0.049
FNVTKKSLTNHS [CDS1 C-terminal 12 aa]	0.6978 ± 0.0048	0.742 ± 0.049
FPVKSSPNAHTA [YLR334C C-terminal 12 aa]	0.707 ± 0.018	0.687 ± 0.026
FPWSHGTCIRGA [YOR376W C-terminal 12 aa]	0.696 ± 0.013	0.688 ± 0.01
FQREQVAKGGLL [CHL4 C-terminal 12 aa]	0.717 ± 0.016	0.69 ± 0.057
FRRRLGDRFKKD [MRX7 C-terminal 12 aa]	0.6895 ± 0.0044	0.695 ± 0.017
FSYIRSKQMQQK [MNE1 C-terminal 12 aa]	0.746 ± 0.031	0.6666 ± 0.0065
FTNALKNMYFSA [YJR037W C-terminal 12 aa]	0.709 ± 0.0094	0.585 ± 0.019
FVYERMKWNFGI [LEU5 C-terminal 12 aa]	0.7059 ± 0.0044	0.275 ± 0.025
FWHEVVVFPIPN [YDR015C C-terminal 12 aa]	0.717 ± 0.017	0.716 ± 0.062
GAGVVAAAAMLL [TIR1 C-terminal 12 aa]	0.7182 ± 0.0061	0.713 ± 0.016
GAGWSGFKKVFK [GYL1 C-terminal 12 aa]	0.692 ± 0.013	0.722 ± 0.042
GAHDDMDNGDDW [LAS17 C-terminal 12 aa]	0.689 ± 0.01	0.663 ± 0.015
GAIYVLQWANPT [YBR287W C-terminal 12 aa]	0.667 ± 0.025	0.662 ± 0.061
GATEKRKCAKPF [CSL4 C-terminal 12 aa]	0.674 ± 0.033	0.687 ± 0.029
GDDDIDDDDDMI [TVP15 C-terminal 12 aa]	0.691 ± 0.023	0.677 ± 0.023
